Results reported in PMC5943153 (Molecular microbiology, 2018).

T1: HP0221-T25 (NifU) (Helicobacter pylori strain 26695, UniProt O25009 2-326)
T1 sequence (looked up): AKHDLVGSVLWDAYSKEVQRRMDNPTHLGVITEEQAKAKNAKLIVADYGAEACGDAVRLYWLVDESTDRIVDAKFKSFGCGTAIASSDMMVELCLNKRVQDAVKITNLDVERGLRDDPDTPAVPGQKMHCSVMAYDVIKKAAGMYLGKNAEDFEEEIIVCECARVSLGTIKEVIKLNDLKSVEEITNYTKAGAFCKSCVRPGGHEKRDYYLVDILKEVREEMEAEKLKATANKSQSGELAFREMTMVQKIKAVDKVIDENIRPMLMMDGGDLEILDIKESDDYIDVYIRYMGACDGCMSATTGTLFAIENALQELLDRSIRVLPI

T2: T25-HP0221 (NifU) (Helicobacter pylori strain 26695, UniProt O25009 2-326)
T2 sequence (looked up): T1 sequence (looked up)

T3: T25-HP1492 (Nfu) (Helicobacter pylori strain 26695, UniProt O26025 2-89)
T3 sequence (looked up): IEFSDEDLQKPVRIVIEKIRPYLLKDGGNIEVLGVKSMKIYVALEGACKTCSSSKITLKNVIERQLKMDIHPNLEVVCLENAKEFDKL

B1: T18-HP0631 (natural protein, Helicobacter pylori strain 26695, UniProt O25348 2-384, looked up)
chain: FYDEKKTYQKIEERLDIVRSFNAHNEHKNLQDEFKGAGISRRDLLKWAGMMSTALALPASFAPLTLKAVEVANRLPVIWLHMAECTGCSESLLRSADPTIDSIIFDYINLEYHETIMVASGFQAEKSLHDAIEKHKNNYILMVEGGIPQGTEYFLTQGPNAETGAEECRKAAQYAAAIFAIGTCSSFGGVQAAYPNPSNAQPLHKIIDKPVINVPGCPPSEKNIVGNVLYYLMFGALPKLDAYNRPSWAYGNRIHDLCERRGHFDAGEFVEHFGDENAKRGFCLYKMGCKGPYTFNNCSKLRFNSHTSWPIGAGHGCIGCSEPNFWDTMSPFEEPLANRSIKTAFDGLGADKVADKVGTTLLSATAIGIVAHALLSKAIKNKE
B2: T18-HP0285 (natural protein, Helicobacter pylori strain 26695, UniProt P56130 2-418, looked up)
chain: KKVYFKTFGCRTNLFDTQVMSENLKDFSTTLEEQEADIIIINSCTVTNGADSAVRSYAKKMARLDKEVLFTGCGVKTQGKELFEKGFLKGVFGHDNKEKINALLQEKKRFFIDDNLENKHLDTTMVSEFVGKTRAFIKIQEGCDFDCNYCIIPSVRGRARSFEERKILEQVGLLCSKGVQEVVLTGTNVGSYGKDRGSNIARLIKKLSQIAGLKRIRIGSLEPNQINDEFLELLEEDFLEKHLHIALQHSHDLMLERMNRRNRTKSDRELLETIASKNFAIGTDFIVGHPGESGSVFEKAFKNLESLPLTHIHPFIYSKRKDTPSSLMTDSVSLEDSKKRLNAIKDLIFHKNKAFRQLQLKLNTPLKALVEVQKDGEFKALDQFFNPIKIKSDKPLRASFLEIKEYEIKERENHAVF
B3: T18-HP0654 (natural protein, Helicobacter pylori strain 26695, UniProt O25368 2-360, looked up)
chain: DFLEKVLDNQVTESKELVRLYDYDLYTLGEVADRMRQNMHQKIVYFNVNRHLNPSNICADACKFCAFSAHRKNPNPYEMSLEEILEKVKNSYNKGIKEVHIVSAHNPNYSYEWYLKVFETIKQEMPNLHLKAMTAAEVHFLSVKFNKPFELVLEDMLKAGVDSMPGGGAEIFDEEIRRKICNGKVGSSRWLEIHAYWHKLGKMSNATMLFGHIENKIHRIDHMLRIKKIQSPKNQVENKEGGFNAFIPLLYQKENNYLNVEKSPSAIEILKTIAISRILLNNIPHIKAYWATLGLNLALVAQEFGANDLDGTIEIESIQSAAGAKSRHGLEKEDLIFKIKDAGFVAVERDSLYNFIQKF
B4: T18-HP0779 (natural protein, Helicobacter pylori strain 26695, UniProt P56418 2-852, looked up)
chain: KDFLEDYKKSVSERGSEGIPPLPLNAKQVQAVVEILTKDPTNAAFAKELLIHRVSPGVDEGAKVKAEFLAKLSQKKLECVHISALEATTLLGTMLGGYNVEPLIMGLESQDKNIAKESAKALKTTLLVYGSFDKIAAMSKTNALAKEVLESWANAEWFLNKEPLNECIEACVFKIDGETNTDDLSPASDAFTRSDIPLHAKAMLKNRIENYEQRIKAIKTKGVPVAYVGDVVGTGSSRKSATNSIMWHFGKDIPFVPNKRSGGIVIGGVIAPIFFATCEDSGALPIVADVKDLKEGDLIKIYPYKGEITLNDKVVSTFKLEPETLLDEVRASGRIPLIIGRGLTNKARKFLGLGESEAFKKPSAPKSDAKGYTLAQKIVGHACGVKGILPGTYCEPKVTTVGSQDTTGAMTRDEVKELASLKFDAPFVLQSFCHTAAYPKPSDVSLHATLPGFITQRGGVALHPGDGVIHTWLNRMGLPDTLGTGGDSHTRFPLGISFPAGSGLVAFAAVTGTMPLNMPESVLVRFKGEMNPGITLRDLVNAIPYYAIKKGLLTVEKKGKINVFNGRILEIEGLPDIKMEQAFELSDASAERSAAACVVRLNKEPMIEYLKSNIKLIDEMIASGYEDKETLKKRRDAMQAWVDNPVLLEPDSNAQYAAVIEIDVAEITEPILACPNDPDDVATLSEVLADTTGKRPHAIDEVFIGSCMTNIGHFRAFGEIVKNAPPSQARLWVVPPSKMDEQELINEGYYAIFGAAGARTEVPGCSLCMGNQARVRDNAVVFSTSTRNFDNRMGRGAKVYLGSAELGAACALLGRIPTKEEYMNLVSEKLESQKDKIYRYMNFNLMENFRL
B5: T18-HP0117 (natural protein, Helicobacter pylori strain 26695, UniProt P56080 2-308, looked up)
chain: AKENPPIVFGPVLSRRFGKSLGVDLSPSKKQCNYNCIYCELGKAKPIERMEEVIKVETLINAIQNALNNLTTPIDVLTITANGEPTLYPHLLELIQSIKPFLKGVKTLILSNGSLFYEPKVQQALKEFDIVKFSLDAIDLKAFERVDKPYSKDINKILEGILRFSQIYQGQLVAEVLLIKGVNDSANNLKLIAAFLKQINIARVDLSTIDRPSSFKAPKLSEDELLKCSLFFEGLCVSLPKRSITQAKKLISCGIDELLALISRRPLSAEEAPLILDSNAFKHLETLLNHKQITIKKVGSLEFYCAF
B6: T18-HP0625 (natural protein, Helicobacter pylori strain 26695, UniProt O25342 2-359, looked up)
chain: LENRVKTKQIFIGGVAIGGDAPISTQSMTFSKTADIESTKNQIDRLKLAGADLVRVAVSNEKDALALKELKKVSPLPLIADIHFHYKFALIAAQSVDAIRINPGNIGSKEKIKAVVDACKEKNIPIRIGVNAGSLEKQFDQKYGPTPKGMVESALYNAKLLEDLDFTNFKISLKASDVIRTIEAYRMLRPLVIYPFHLGVTEAGNLFSSSIKSAMALGGLLMEGIGDTMRVSITGELENEIKVARAILRHSGRLKEGINWISCPTCGRIEANLVDMAIKVEKRLSHIKTPLDISVMGCVVNALGEAKHADMAIAFGNRSGLIIKEGKVIHKLAEKDLFETFVIEVENLAKEREKSLKD
B7: T18-HP1222 (natural protein, Helicobacter pylori strain 26695, UniProt O25820 2-948, looked up)
chain: RVEENYHAFFTEASGFLNERIFKDYLRRLAYGIDASCYRYIPKIVAWVKNEEEVQKLCVLAKKHGVSLTFRAAGSSLSGQAICDGVLVMVTHFFKDAQILDNAQSIQLSCGVIGSNANALLKPYHKKIGPDPSTINTAMIGGIVANNASGMCCGVEQNSYKTLKSLRVILADGTLLDTANQESVESFKNAHKDLIEGVLNLRKEILEDKELHALIKKKYEIKNTTGYSLNALIDFEDPIEIISHLFIGSEGTLGFISSVELECVKDYAYKTCALLFYENLERCAKAAQILAALKAKQPEMISSAELMDYACLKSVKGLEGMPSVVLEIKEPNACLLIQSESDDPLILENSMQTILNALSAIPVVLDSQISSDPSIYQSWWKIRKGIFPIAASKRKSQSSVIIEDICFSQEDFVEGAKAIEGLLKKHGFKDNGIIFGHALSGNLHFVVTPILENEAERKAFENLVSEMFLMVSKSSGSIKAEHGTGRMVAPFVEMEWGEKAYKIHKQIKELFDPNGILNPDVIITNDKEIHTKNLKSIYPIEEHLDMCMECGFCERICPSKDLSLTPRQRIVIHREVEHLKERVSHGHHEDQVLLDELLKESEYLAHATCAVCHMCSTLCPLEIDTGKIALNYYQKNPKGEKIASKILNHMQTTTSMARFSLKSARLVQNLIGSHNLVSLTKGIKKFIKPFPKAFYYMPKNNAYPLENKTLKSEEKVIYFSTCINRSFAPSNKMADKRCIQEVFESLCQKAKVSVMYPNGLNALCCGKAFINYTDLTKQNNEKNHAIFLQLSDKGKIPIVLDHSACSTHFFKQMKAYKDLKVYDLSVYIEEVLSPKLKFNPINEDIGLYTMCALKLENKEELLFNLAKKCTLGEIVIHKETGCCGFAGNKGFFTPELNESALNGFQAFYQSYDLKRGFSTSSTCEIGLSEKTRFSWQHIAYLVDACTL
B8: T18-HP0656 (natural protein, Helicobacter pylori strain 26695, UniProt O25370 2-383, looked up)
chain: ARNVKGYASTLTWTITRNTLNFLWEQGFKMRINREEILDLMKNAPLKELGQRALRVKQRLHPENLTTFIVDRNINYTNICFVDCKFCAFKRTLKEKDAYVLSYEEIDQKIEELLAIGGTQILFQGGVHPQLKIDYYENLVSHIAQKFPTITIHGFSAVEIDYISKISKLSLKEVLERLKNAGLSSIPGAGAEVLSDRVRDVIAPKKLSSDRWIEVHRMAHLCGIKSTATMMFGSVDNEEDVVEHLQRVRDLQDETGGFRAFILWSFQPNNTPLKEEIPSIKKASSNRYLRYLACSRIFLDNIQNIQSSWVTQGSMIGQLALLFGANDLGSVMMEENVVKAAGTSFCMNEAGMIELIEDIGSVAAKRNTAYEILKRYPAKAKV

Assays:
Test in all cases: two-hybrid
HP0221-T25 (NifU) = target: T1, HP0221-T25 (NifU)
T25-HP0221 (NifU) = target: T2, T25-HP0221 (NifU)
T25-HP1492 (Nfu) = target: T3, T25-HP1492 (Nfu)

Binder	growth OD595 in M63-maltose (HP0221-T25 (NifU))	growth OD595 in M63-maltose (T25-HP0221 (NifU))	growth OD595 in M63-maltose (T25-HP1492 (Nfu))
B1	0.24 OD595	0.08 OD595	
B2			0.21 OD595
B3	0.33 OD595	0.09 OD595	
B4			0.17 OD595
B5			0.09 OD595
B6	0.37 OD595	0.11 OD595	
B7			0.06 OD595
B8	0.26 OD595	0.13 OD595	
